# Test results reported in PMC4072576 (Molecular Biology of the Cell, 2014).
# Biological target: F-actin (rabbit muscle actin) (rabbit, UniProt P68135 1-377)
# Assay: co-sedimentation
Binder,Kd,stoichiometry N,binding result
His-ctxI (recombinant N-terminal His-tagged cortexillin I) (natural protein) MAGKDWEIVQEKAFTAWVNSVLDKRGEKISDVGKDLSDGVKLIFFLELISSKKFNKKYDFEPKARINMIQNVALALKFLDEELKIKVQGIGSEDFVDNNKKMILGFLWTLYRKYRIAVISEGDKSSEEGLLLWCKNTTTGYDGVNITSFTKSFRDGLAFLALSHKFEPESFKFQEFEAMDPIARLNAAFDFAEKGLGVPKLLEAEEVMRGTTDERSLVLYTSLFFHAYRAKEEKARLESSKNEMANRLAGLENSLESEKVSREQLIKQKDQLNSLLASLESEGAEREKRLRELEAKLDETLKNLELEKLARMELEARLAKTEKDRAILELKLAEAIDEKSKLEQQIEATRIRGAAEAQGLGLLRKNLDTHVHDLLKWQKLTMENSSSSSIDDQIIVEVSGLPFGEQVKHLATKLEAENLAIMKLLNQKEDDLKAQKLKSSKSKK,~200 nM,~4 actin subunits per ctxI homodimer,–
His-ctxII (recombinant N-terminal His-tagged cortexillin II) (natural protein) MDLNKEWEKVQEMAFTSWVNSVLEKRGCDKISDVSTDLSDGVKLIYFLESVSGKKFPKKFDLEPKTRIMRVQNLHLAMLFIDEDLKIKVQGVAAEEFVDNNKKMILGFLWTLYRKYRISVINEGDKSSEEGLLAWCKKTTEGYNNVNITGFKSSFRDGHGFLALAHKYDPTVFKYDEYEGHDNIARLNAAFDFAEKGLGIPKLLEAESLSKGNVDERSIVLYTSLFFHAFRAKEEREALEASQNSLNNKLASLEQSLEGEKHSQEELVKQKKDLEDALNKIREQNDNRNSRITDLQSKIDDALRGLDDEKLAKLDLESRLAKCEKDKAILELKLAEILDEKDRLEKKIDEDKKRAEAERLGLGLIRQHLAAQFSDIHKWQSFLEHPETVPYTGTPVDLDSELSSLSFEEQAKKLASKLESENILIEKYLNGKEEAKAAAKK,–,–,binds
